Experiment: soluble fraction after stress (log2 fold change); higher = more stays soluble; pooled small domains, quantitative proteomics
Details: stress: 50 degC
How it was run: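 Each library was heated to 50°C as a stress step. The libraries, made up of small protein domains, were pooled and analysed at high throughput by quantitative proteomics. The reported value is the base-two logarithm of the fold change in each protein's soluble amount after stress, taken as a measure of aggregation propensity. The higher the value, the more protein stays in solution.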

## HMVKLQATPSQRKTLDELYVQLKKLEPTAKEDLSLLRRLENSHLVSKQEAQGLISKAIGRVGALAVEQQP
  soluble fraction (log2): 0.0652

## HMTFNLDVDGDDQVTALGDGLMIIRKLFGATFAGDALTNKAISPDATRTTDEIHAYIEKGITSGVLD
  soluble fraction (log2): -0.268

## HMYALGIPVSQYRRTTQVLGHESSYPIAYEDEKQDDDFYLFKFPNIDEYDFKKIVILLKQNGITT
  soluble fraction (log2): -1.61

## HMHQAADFAGFITFNKDGVEQFSFGKYKNQTVVSVLEKDPGYYSWIQNADFPLYTKKILTAIRLAM
  soluble fraction (log2): -0.577

## HMLEIRGFTVLLSDRGIVGIIEEIIQNPGQDLLRILSPEKREILVPLHSDLITGINKKKKTITMNLPDGL
  soluble fraction (log2): -0.465

## HMDAKNNPQVMAQIRAILTAKGLSEDEVKTRLKTKNIDVDKMTDQEIIAQRPAIEAIINEMEQEKKQKMG
  soluble fraction (log2): 0.252

## HMRDANYFINPIHEWQKRYEALRASFVDRLPAQAVAQRFGYTITYIHLLRHQFKSGKIDFSEPVPEG
  soluble fraction (log2): -4.61

## HMSPAVEDYLEQIHNLIAQKGYARVVDIAGNLKISQASVTNMIQRMDADGLVVYERYRGVVLTETGRK
  soluble fraction (log2): -1.3

## HMKLHPRDQERTRAISARGERLYAVTVGDLRRRIGEMLEWFGRQIESQEPMRVAKAARRITDFFDQVEAFT
  soluble fraction (log2): -2.06

## HMPDKIDSAAQGILDKLIRNDGFMAVTDKSPPEAIYKLFGVSKKVFKQAIGSLYKNRLITIEDAGLRIIPQ
  soluble fraction (log2): -0.0609

## HMKKQLKSEAVADELRRKILSGGFPDKRLPRKDELTEYFQVSQKTVEAALKMLTAEGLIRGVKGTGIFVNG
  soluble fraction (log2): -0.0396

## HMTNTWNNIVERNDLFFKKFTNTPFNGKIETYWPNGNLKETGIITDGKKDNLWEYYYENGNPKEVEF
  soluble fraction (log2): -0.397

## HMANTLDPMDLKQIISLHLDGFSNRKIGATLGISRNTVNTYMRLFSVSDYALKELLTLDNATLDKLFPS
  soluble fraction (log2): -2.01

## HMEKIIFEISEEGKRLDLYIAERTELTRTRIQQLIKDGNINVNNKKSKPSYKVEKNDFIEMIIPDE
  soluble fraction (log2): -0.56

## HMKNLKPSTEVILKELVKRYPDQTEFRKQQIVDVGQSFGYKGKDYGPIFDADNRVKIGTYDLAGLIVPLQR
  soluble fraction (log2): -0.0461

## HMDAPKTGSLVVSKAVNYGSWSGFTFRLHGTSDKGNSVDVTATTGSDGKAYFKDIEIGTYTLEEVN
  soluble fraction (log2): -0.387

## HMGLQRLTVSPEDAGVRIDKYLAEQLPDITRSYLQKLLKDGSVQMNGKPVKASTKTAVGAVIALTIPEP
  soluble fraction (log2): 0.0689

## HMQLKKDTILSYIEEKLIDSYNSNKGFTTQEISVALNMQRTNVSAILNNLVKENKLVKTKGKPVRYFLSG
  soluble fraction (log2): -0.708

## HMPDVAIMNVSVEPEKKVVRLQVKAISLEALLDFSTRLEAIPARVELQNHTPSKELSQKWAVNATLIVIY
  soluble fraction (log2): 0.146

## HMFAADIGVGIVDADSLRVRSEPSTGAPIVTSLLRGTQVTVQEKLDGWYRITYNDVSGFVSAEYLIFTADE
  soluble fraction (log2): -0.241

## HMQILPAFLPENPELRARLANHSLEELTEILKQYKTLHNSTDVDTVKRAIRAIEIEEYYAVHPV
  soluble fraction (log2): -0.777

## HMPKNVEVPNVVGLSLPMAKLRLTQLGLHIVVRDSVWSETGQPNTILDQDPQPGKKIKPESTVYVKVN
  soluble fraction (log2): -0.0939

## HMPSSFLVKVTADALNIRSGPGVANRITGTIKDKGTYTIVDTKDDWGKLKSGVGWIHLGYTKRLD
  soluble fraction (log2): -0.33

## HMDAVDKDGNHMTFKKWSEQLQEAFHALELYDTTRAKQILSELVKFQVDSDITKSLKAIITNIDDMMA
  soluble fraction (log2): -0.338

## HMPATIEGIRLYLSSGLIKGVGEEMASRIVKAFGTDTIRVLDEEPERLLKVRGVGKKSLDRIRTSWAEH
  soluble fraction (log2): -0.386

## HMSQDTLIGRVGVIVIGQARTGSPAQVRVKDGFGQTHYVMAEPDSEGVLKQGEAVLLVSLEGNTFKAILNP
  soluble fraction (log2): -0.286

## HMHMSLTEKYKELTDLAVSAGVQNLNVREQDGVLYVDGDASGAVKQQLWDTYGKLDPDYTSGDLVLNI
  soluble fraction (log2): 0.0615

## HMNMSVVEKVIQQISNPGRDSLIPILQAVQEEEGFISRESVIEIGKALDLPASKIYGVATFYNQFR
  soluble fraction (log2): -0.338

## HMPSLSAILHDARVAAGLSMRQASAASGLSIGFISMLEQGKVQDISLQRLGRLVTAYDLEPLDVIEAAG
  soluble fraction (log2): -1.55

## HMNDYIGVDRAKEIALNHARMNESDVQFAKAKLENDDGVVEYEIEFYFGRTEYDYTIDAVSGNIIEYDVEY
  soluble fraction (log2): -1.05

## HMVQVPSLVGISEIEAKTLLTQAGFFVKIVEVFDANQPVGIVLAQAPSAGESRIIGSPVTITVNKAQ
  soluble fraction (log2): -0.867

## HMQITSTDEIEKMIDELIAANPEQTKQYQNGNHKVAGWFVGQMMKASKGKANPQMVNNLLQKKL
  soluble fraction (log2): 0.0271

## HMEKTEQMQVILDYIARYGEINNEKVQEILGVKRTRAYTILKQMVENGFVTTNGRGEEKKYYSIR
  soluble fraction (log2): -0.336

## HMTALAVGDRVKMDKSATIYGTMRKFAAWVYATKLYVRGIDGNRVVVSTLKSGAITGAVDKKHLTK
  soluble fraction (log2): -1.12

## HMSIQELMNSKDLSSFKVEMLSDEDIAKYKGLLQNSGLTEAQAEQMALQRGLPSSELLKLKARLSGI
  soluble fraction (log2): 0.128

## HMELSAEGWVDGTGVRMRASASTDSEVVRVTEDGESLDITGVSGTWYRVTAGGVSGYIRSDYVSLEEP
  soluble fraction (log2): -0.287

## HMSLEEQNGAKDRQVEAYELLLKAQRALDQEDTAGFQAAMKDLEPLSSQLDAQGQTLYHELLPFVS
  soluble fraction (log2): -0.0812

## HMSDAGAIEPTIKEILASNPKAVEEYLAGNIKNINALIGQSMKALHGKADPQTVRNLLAKLLDEM
  soluble fraction (log2): -0.219

## HMAFKDDDVQKAYDRYMDRYGELSVLYSDNGLKVDDDLFYKNNIPPNGKFTKEFFDELYELVNMEFINNY
  soluble fraction (log2): -0.0827

## HMDIYLDDINRKILHLLSQGVKTKSLRDYIDLSMSAIEKRKKHLKDLFLIEDGKDETLLSEARKKGF
  soluble fraction (log2): -0.672

## HMDSPVEEWANRGLAYDPSLVTETMAKLYAKQGQIGLARKAFKRLALIYPEKSVYFAFQLKKLSNN
  soluble fraction (log2): -1.63

## HMSTKLLEVNIFDDSKWVNKTIMDSDIPEDILIVMIKRGDEVIVPKGSTIINKGDILVLSANNFDNLLN
  soluble fraction (log2): -1.63

## HMRMTKPLPFDLAAFRNEFGFTKSIIMQEVGVSRHIYDNVERTNATPPEFYDDFVSFFQRHGQ
  soluble fraction (log2): -1.04

## HMSAAYVYVTGTRVNQRDGPSTFDRVMGVLVEGTRVQLLRDQGQWAQIRSDLGTGWLSSGFLSRNG
  soluble fraction (log2): -1.87

## HMSNIQLAANLQRLRKDHHFTQTQFSKKLNISRQAYSNYETGKRIPDLDIIIRIANIYHISLENLL
  soluble fraction (log2): -0.389

## HMREEIESVYKTLAVTEIPYIARGNSARLGSGIQTVYDFYRMEGMQVSKILGRNGSVLWLELHG
  soluble fraction (log2): 0.126

## HMPLYKYYTSYQIEPGDTLTSIAQKYTINSDVSVQDYIDEVKKNNNLVSDKINSGSYLVVSYYSNEY
  soluble fraction (log2): -2.35

## HMIENITIELNKKALALDFELNKDLPEGVLETIPTLVSLMVRFDPLTVSYHFLRDYIDALLESNLNVDL
  soluble fraction (log2): -0.0273

## HMNNGTDGLTTRLRRAILAGQYTFKERLPSERQLAEHFNTSRGTVRKVLQRLTTMNLVEQRAGSGTYVRYG
  soluble fraction (log2): -0.2

## HMTAMDTQQKKLIIMYHDIHRLRNVEHFTIQRIADHLLLNFRTVKKFLEMTQEEFDKFSENRW
  soluble fraction (log2): -3.01

## HMIDVGSKIRSLRKSKNISISTLAKNSDLSTGLISQIERNMVVPSIVAMWKISKALDINIGYFFE
  soluble fraction (log2): -2.42

## HMSTSEQVYTTDKVNVRREADTSSEKLGSLEKGTAISRTGTEGEWSVVNYGGVTGYIKTEFLTTEQPQ
  soluble fraction (log2): 0.132

## HMHEAILNQIRNEELMLYIGELSDAQQDVILLKYFHQMTFKEIAESFSIPISTVKTRHTAALKKLSTLWK
  soluble fraction (log2): -0.16

## HMTYTMVAYGSQGDAVRQLQSELNRHGYQLDEDGVFGKKTRAAVRDYQKKNSLRLDGIAGDETWGSLLA
  soluble fraction (log2): 0.324

## HMQVSDANQLTDVVKSIIKQYPVEVEKYKSGKKALFGFFMGKVMENLKGKSNPKILKNVLTEILD
  soluble fraction (log2): 0.108

## HMTSVFQNSDGTWGHLTKTVNPLIYTIEYGRRTGFSSREEAEESYQRSLTSYQDQLSKLKKERD
  soluble fraction (log2): 0.314

## HMSQEAKLAMPVTDLRLSARTLNALELANIRTVRDLVSHTEEQLLELRNFGETALAEVKEKLAALGLRLGM
  soluble fraction (log2): 0.18

## HMTMIIQLDKNITQEQRQFLVEELNRLSISPNFVSTQFTNYIVGIPKKEFDIRLIGNLPGIADIHFV
  soluble fraction (log2): -0.183

## HMEEIDLTPAEEILNKLPDNSRGYLIPTLNKIQNAYRFLPDPAMELLMEFFNVSRAEIFGVISFYPQLMI
  soluble fraction (log2): -0.0574

## HMRLGQLQSVEEPKFIEVHSGKQGDIGEQTIVEYEIDAKYATGDATINLKLLFRDGLFEIYNFNFSSEALL
  soluble fraction (log2): 0.0828

## HMLKDGPIGAYADSVIRDIIEKMERFSKEHINVDMLKIHEKIMLIDEPIIRMALLDEFHRVSHDN
  soluble fraction (log2): -2.09

## HMAGPVLTPEEAEVLRILADHGEMTVDNISAEGKMSAAVVLRGLGVLSAYGLVAPGGPGRWRSE
  soluble fraction (log2): -0.253

## HMNALREVNTSILNVRSGAGTNYSKIGSLTQATRVSVISESNGWSKINYNGKVGYVSSQYLS
  soluble fraction (log2): -0.502

## HMSKHATLLEALAELTVKLKPHTQLPSERQLSEDFGVSRMTLRRAIDVMQSRGYIYTVPSKGLYVSEP
  soluble fraction (log2): -1.59

## HMTIDNPESQKIMDMVPFFFQSRNYDEAIEALTYVIEQEPQFSEAYNKRATFYFMMGDLENSMKDIEITLA
  soluble fraction (log2): -0.401

## HMNNFNVVVGKAIKNSFNTRENYITINAGKVLGIKTDMGVINDKGIVGIVEKTSKDFATIQSVLNIKS
  soluble fraction (log2): 0.00115

## HMALHLPTTTINGRQYYYFKSKEKITVYGLSKRLGLTRQEIVEHNPSAVDGIKRGSTLYFPVDEFAD
  soluble fraction (log2): -2.09

## HMNREMLVHAIGQLKEKYASALELKYWHGFTEREIAAFLNISEKAANSRLVRGRVMLRKLLE
  soluble fraction (log2): 0.131

## HMEDQLDSLKDIIYDYLENNELYYNDLQEFKKIIIENMEFIHPNLNHKLIDNNFFKLINFKLEYNF
  soluble fraction (log2): -0.0455

## HMTAGTGIAYSEFRSKVQEGQVKDVAIAPDRITGTLSSGQKFSTVPVNDPGLPKMLDDFNVKYSGQA
  soluble fraction (log2): 0.104

## HMEYLIENYGSVINQARMKKGMTQEQLSSKTGVSQAYIRSIESQNMKPTDAVARKIEFELGIKLFE
  soluble fraction (log2): -0.0273

## HMGVLSPRQSQILALVAQGLGNREIAERLHIAPTTARDHVQAIMRRLNVNSRAAAAVMGVKLGLI
  soluble fraction (log2): -0.625

## HMNMGKRFKELRKERKFTQQQLADRIGLAPSAISSYESGARYPSYDVLIKYSKIFHVTTDYLLG
  soluble fraction (log2): -2.81

## HMDDPITVAYRETEDAIAQVQREGFPVEMPPANSYIRRIQHELAGRFNLDSESYGDEPERRVRIRPQQ
  soluble fraction (log2): -0.00875

## HMSAPVFRITPAGVVVNGLKRSDILTLTRIDGAMNTLPHNAGEVLVSTEGLAKGVYVITAGGKSLKFLV
  soluble fraction (log2): -1.36
